Measured values from patent publication US20160200782A1.

What was measured:
Test in all cases: cell-based or functional assay
DAPK2(h) (human) = DAPK2(h) (human) (UniProt Q9UIK4)
LIMK1(h) (human) = LIMK1(h) (human) (UniProt P53667)
FGFR2(h) (human) = FGFR2(h) (human) (UniProt P21802)
EphA3(h) (human) = EphA3(h) (human) (UniProt P29320)
MRCKβ(h) (human) = MRCKβ(h) (human) (UniProt Q9Y5S2)
PKCη(h) (human) = PKCη(h) (human) (UniProt P24723)
PDGFRα(V561D)(h) (human) = PDGFRα(V561D)(h) (human) (UniProt P16234)
EphB2(h) (human) = EphB2(h) (human) (UniProt P29323)
ZIPK(h) (human) = ZIPK(h) (human) (UniProt O43293)
DYRK2(h) (human) = DYRK2(h) (human) (UniProt Q92630)
PKCδ(h) (human) = PKCδ(h) (human) (UniProt Q05655)
Pim-2(h) (human) = Pim-2(h) (human) (UniProt Q9P1W9)
ZAP-70(h) (human) = ZAP-70(h) (human) (UniProt P43403)
RIPK2(h) (human) = RIPK2(h) (human) (UniProt O43353)
GRK7(h) (human) = GRK7(h) (human) (UniProt Q8WTQ7)
SAPK4(h) (human) = SAPK4(h) (human) (UniProt O15264)
ROCK-II(h) (human) = ROCK-II(h) (human) (UniProt O75116)
EphA1(h) (human) = EphA1(h) (human) (UniProt P21709)
Rse(h) (human) = Rse(h) (human) (UniProt Q06418)
Pim-3(h) (human) = Pim-3(h) (human) (UniProt Q86V86)
Ab1(Q252H)(h) (human) = Ab1(Q252H)(h) (human) (UniProt P00519)
ULK3(h) (human) = ULK3(h) (human) (UniProt Q6PHR2)
GCK(h) (human) = GCK(h) (human) (UniProt Q12851)
CDK3/cyclinE(h) (human) = CDK3/cyclinE(h) (human) (UniProt Q00526)
FAK(h) (human) = FAK(h) (human) (UniProt Q05397)
CHK2(h) (human) = CHK2(h) (human) (UniProt O96017)
PRAK(h) (human) = PRAK(h) (human) (UniProt Q8IW41)
AMPKa1(h) (human) = AMPKa1(h) (human) (UniProt Q13131)
Syk(h) (human) = Syk(h) (human) (UniProt P43405)
ULK2(h) (human) = ULK2(h) (human) (UniProt Q8IYT8)
PKD2(h) (human) = PKD2(h) (human) (UniProt Q9BZL6)
SGK3(h) (human) = SGK3(h) (human) (UniProt Q96BR1)
CaMKIδ(h) (human) = CaMKIδ(h) (human) (UniProt Q8IU85)
SGK(h) (human) = SGK(h) (human) (UniProt O00141)
Itk(h) (human) = Itk(h) (human) (UniProt Q08881)
MAPKAP-K3(h) (human) = MAPKAP-K3(h) (human) (UniProt Q16644)
JAK3(h) (human) = JAK3(h) (human) (UniProt P52333)
Tie2(h) (human) = Tie2(h) (human) (UniProt Q02763)
PKBβ(h) (human) = PKBβ(h) (human) (UniProt P31751)
p70S6K(h) (human) = p70S6K(h) (human) (UniProt P23443)
PASK(h) (human) = PASK(h) (human) (UniProt Q96RG2)
Ab1(H396P)(h) (human) = Ab1(H396P)(h) (human) (UniProt P00519)
DCAMKL2(h) (human) = DCAMKL2(h) (human) (UniProt Q8N568)
Bmx(h) (human) = Bmx(h) (human) (UniProt P51813)
TSSK2(h) (human) = TSSK2(h) (human) (UniProt Q96PF2)
TAO2(h) (human) = TAO2(h) (human) (UniProt Q9UL54)
KDR(h) (human) = KDR(h) (human) (UniProt P35968)
SRPK2(h) (human) = SRPK2(h) (human) (UniProt P78362)
NEK3(h) (human) = NEK3(h) (human) (UniProt P51956)
CK2(h) (human) = biological target: CK2(h) (human)
CHK1(h) (human) = CHK1(h) (human) (UniProt O14757)
Flt3(D835Y)(h) (human) = Flt3(D835Y)(h) (human) (UniProt P36888)
Ret(h) (human) = Ret(h) (human) (UniProt P07949)
CaMKIIδ(h) (human) = CaMKIIδ(h) (human) (UniProt Q13557)
IRAK4(h) (human) = IRAK4(h) (human) (UniProt Q9NWZ3)
Met(Y1248D)(h) (human) = Met(Y1248D)(h) (human) (UniProt P08581)
NEK7(h) (human) = NEK7(h) (human) (UniProt Q8TDX7)

Sequence of NEK3(h) (human) (P51956 whole entry): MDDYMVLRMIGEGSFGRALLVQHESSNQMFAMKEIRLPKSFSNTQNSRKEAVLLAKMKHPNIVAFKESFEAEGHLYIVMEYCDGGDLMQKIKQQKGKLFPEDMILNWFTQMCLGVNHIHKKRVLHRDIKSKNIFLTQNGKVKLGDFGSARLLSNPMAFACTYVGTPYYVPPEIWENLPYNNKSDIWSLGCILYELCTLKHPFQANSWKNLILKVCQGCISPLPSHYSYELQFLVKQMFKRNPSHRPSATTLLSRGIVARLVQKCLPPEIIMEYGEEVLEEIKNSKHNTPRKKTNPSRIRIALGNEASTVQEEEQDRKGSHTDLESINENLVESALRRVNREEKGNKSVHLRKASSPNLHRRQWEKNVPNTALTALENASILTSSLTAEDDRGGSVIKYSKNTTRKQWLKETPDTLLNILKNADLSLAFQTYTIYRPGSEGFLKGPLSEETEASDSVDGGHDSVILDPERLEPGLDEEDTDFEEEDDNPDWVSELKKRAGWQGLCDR
Sequence of LIMK1(h) (human) (P53667 285-638 limits assumed): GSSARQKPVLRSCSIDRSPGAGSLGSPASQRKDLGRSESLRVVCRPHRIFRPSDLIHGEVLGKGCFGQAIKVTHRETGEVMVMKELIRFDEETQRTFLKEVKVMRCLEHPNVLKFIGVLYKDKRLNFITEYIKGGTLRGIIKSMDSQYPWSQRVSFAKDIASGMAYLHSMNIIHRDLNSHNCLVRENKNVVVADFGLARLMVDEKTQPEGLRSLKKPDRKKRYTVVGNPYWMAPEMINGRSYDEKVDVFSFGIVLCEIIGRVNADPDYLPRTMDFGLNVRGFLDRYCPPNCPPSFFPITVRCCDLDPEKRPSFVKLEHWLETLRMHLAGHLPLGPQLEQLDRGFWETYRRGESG
Sequence of ULK3(h) (human) (Q6PHR2 whole entry): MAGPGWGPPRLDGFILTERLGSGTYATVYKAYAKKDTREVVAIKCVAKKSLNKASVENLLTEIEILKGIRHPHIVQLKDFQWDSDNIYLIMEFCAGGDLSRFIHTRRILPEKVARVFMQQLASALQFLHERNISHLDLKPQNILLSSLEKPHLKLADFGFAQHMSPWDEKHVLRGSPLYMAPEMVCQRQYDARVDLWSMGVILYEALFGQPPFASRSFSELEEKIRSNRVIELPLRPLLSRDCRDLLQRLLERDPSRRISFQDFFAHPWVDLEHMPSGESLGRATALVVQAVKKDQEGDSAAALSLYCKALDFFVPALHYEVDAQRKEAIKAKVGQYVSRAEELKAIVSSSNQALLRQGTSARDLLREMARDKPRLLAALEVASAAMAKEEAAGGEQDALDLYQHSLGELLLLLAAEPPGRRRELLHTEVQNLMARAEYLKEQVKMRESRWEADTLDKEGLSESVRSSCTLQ
Sequence of p70S6K(h) (human) (P23443 1-421 limits assumed): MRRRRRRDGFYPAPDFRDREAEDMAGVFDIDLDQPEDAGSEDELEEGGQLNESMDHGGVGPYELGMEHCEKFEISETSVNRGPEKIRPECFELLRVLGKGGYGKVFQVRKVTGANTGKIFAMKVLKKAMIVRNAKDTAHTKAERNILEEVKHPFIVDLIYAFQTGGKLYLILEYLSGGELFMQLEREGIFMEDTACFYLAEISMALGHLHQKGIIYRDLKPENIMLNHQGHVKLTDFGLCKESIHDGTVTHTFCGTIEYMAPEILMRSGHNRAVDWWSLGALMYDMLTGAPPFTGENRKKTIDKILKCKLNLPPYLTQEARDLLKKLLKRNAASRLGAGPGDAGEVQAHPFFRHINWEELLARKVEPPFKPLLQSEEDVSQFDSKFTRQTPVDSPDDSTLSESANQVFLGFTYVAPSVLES
Sequence of Tie2(h) (human) (Q02763 771-1124 limits assumed): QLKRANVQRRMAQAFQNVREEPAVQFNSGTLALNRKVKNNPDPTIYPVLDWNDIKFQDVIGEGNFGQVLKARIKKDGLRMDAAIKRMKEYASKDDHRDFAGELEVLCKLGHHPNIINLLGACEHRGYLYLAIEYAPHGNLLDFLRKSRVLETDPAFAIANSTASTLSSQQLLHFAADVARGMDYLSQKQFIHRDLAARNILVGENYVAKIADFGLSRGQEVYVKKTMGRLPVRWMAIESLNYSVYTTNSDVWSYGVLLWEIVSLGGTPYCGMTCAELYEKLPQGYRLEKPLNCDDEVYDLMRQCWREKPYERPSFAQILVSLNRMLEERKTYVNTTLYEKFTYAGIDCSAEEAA
Sequence of GCK(h) (human) (Q12851 whole entry): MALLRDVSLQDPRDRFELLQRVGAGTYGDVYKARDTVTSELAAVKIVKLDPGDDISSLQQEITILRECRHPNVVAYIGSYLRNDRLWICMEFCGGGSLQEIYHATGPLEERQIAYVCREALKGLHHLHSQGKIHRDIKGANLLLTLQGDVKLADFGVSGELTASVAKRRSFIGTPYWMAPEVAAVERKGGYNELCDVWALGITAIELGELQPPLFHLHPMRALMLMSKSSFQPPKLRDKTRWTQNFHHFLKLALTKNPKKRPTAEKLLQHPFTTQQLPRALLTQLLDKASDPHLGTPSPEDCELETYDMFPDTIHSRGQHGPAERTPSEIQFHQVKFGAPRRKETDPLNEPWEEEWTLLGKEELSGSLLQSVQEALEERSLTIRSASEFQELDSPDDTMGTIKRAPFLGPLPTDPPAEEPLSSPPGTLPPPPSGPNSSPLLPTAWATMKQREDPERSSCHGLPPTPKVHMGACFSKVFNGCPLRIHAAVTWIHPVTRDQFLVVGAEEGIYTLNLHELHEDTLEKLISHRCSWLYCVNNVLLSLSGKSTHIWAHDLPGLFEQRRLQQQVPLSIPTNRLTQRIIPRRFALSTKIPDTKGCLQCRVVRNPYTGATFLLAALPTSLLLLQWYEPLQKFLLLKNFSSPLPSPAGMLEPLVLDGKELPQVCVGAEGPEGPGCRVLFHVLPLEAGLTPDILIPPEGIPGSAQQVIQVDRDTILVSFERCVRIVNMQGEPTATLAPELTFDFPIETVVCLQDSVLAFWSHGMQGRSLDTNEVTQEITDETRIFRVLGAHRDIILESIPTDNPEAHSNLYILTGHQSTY
Sequence of PDGFRα(V561D)(h) (human) (P16234 550-1089 V561D limits assumed): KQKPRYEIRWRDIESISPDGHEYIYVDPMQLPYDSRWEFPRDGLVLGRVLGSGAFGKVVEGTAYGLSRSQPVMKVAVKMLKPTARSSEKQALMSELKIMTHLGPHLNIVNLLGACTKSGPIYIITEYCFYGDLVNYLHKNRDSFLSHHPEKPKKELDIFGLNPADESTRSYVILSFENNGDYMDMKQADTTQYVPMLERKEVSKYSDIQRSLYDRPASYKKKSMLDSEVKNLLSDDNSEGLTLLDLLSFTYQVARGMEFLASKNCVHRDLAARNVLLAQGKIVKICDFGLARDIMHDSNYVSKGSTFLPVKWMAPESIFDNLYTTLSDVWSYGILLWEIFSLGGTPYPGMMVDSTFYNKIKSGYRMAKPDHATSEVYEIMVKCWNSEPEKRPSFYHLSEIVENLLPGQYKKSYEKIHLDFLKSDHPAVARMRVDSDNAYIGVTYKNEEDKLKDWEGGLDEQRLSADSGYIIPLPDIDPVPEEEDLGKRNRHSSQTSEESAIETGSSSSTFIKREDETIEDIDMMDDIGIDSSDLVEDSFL
Sequence of PKCδ(h) (human) (Q05655 whole entry, stated change not applied): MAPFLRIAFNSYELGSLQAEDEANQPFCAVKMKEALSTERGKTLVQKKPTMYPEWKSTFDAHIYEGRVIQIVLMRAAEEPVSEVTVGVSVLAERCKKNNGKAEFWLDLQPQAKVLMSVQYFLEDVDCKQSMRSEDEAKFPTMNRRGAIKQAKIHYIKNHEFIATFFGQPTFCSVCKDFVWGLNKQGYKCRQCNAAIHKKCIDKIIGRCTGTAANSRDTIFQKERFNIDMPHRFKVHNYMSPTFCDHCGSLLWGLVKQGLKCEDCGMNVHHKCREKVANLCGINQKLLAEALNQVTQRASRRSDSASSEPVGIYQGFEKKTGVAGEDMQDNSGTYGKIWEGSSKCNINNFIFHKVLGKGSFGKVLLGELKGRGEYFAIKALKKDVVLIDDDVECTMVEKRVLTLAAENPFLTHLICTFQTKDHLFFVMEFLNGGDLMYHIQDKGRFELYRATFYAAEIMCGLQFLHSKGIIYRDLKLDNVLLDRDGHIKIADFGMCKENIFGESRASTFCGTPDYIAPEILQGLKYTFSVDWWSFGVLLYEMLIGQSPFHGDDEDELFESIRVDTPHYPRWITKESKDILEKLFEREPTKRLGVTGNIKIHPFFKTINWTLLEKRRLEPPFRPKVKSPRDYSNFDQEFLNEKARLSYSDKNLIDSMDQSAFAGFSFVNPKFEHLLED
Sequence of Pim-2(h) (human) (Q9P1W9 whole entry): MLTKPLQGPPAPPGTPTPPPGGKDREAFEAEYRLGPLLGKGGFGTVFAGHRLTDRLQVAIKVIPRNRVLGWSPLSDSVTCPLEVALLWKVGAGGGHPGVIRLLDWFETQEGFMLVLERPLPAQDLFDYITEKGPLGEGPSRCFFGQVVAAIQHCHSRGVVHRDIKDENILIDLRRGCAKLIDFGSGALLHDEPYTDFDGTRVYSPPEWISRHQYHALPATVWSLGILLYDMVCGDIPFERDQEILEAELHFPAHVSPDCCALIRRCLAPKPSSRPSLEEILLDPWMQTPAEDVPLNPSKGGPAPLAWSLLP

MMI-0500 (peptide)
% activity (DAPK2(h) (human)): 3% | % activity (LIMK1(h) (human)): 87% | % activity (FGFR2(h) (human)): 12% | % activity (EphA3(h) (human)): 33% | % activity (MRCKβ(h) (human)): -10% | % activity (PKCη(h) (human)): 45% | % activity (PDGFRα(V561D)(h) (human)): 146% | % activity (EphB2(h) (human)): 70% | % activity (ZIPK(h) (human)): 1% | % activity (DYRK2(h) (human)): 127% | % activity (PKCδ(h) (human)): 61% | % activity (Pim-2(h) (human)): 46% | % activity (ZAP-70(h) (human)): 1% | % activity (RIPK2(h) (human)): 30% | % activity (GRK7(h) (human)): 93% | % activity (SAPK4(h) (human)): 48% | % activity (ROCK-II(h) (human)): 2% | % activity (EphA1(h) (human)): 40% | % activity (Rse(h) (human)): 63% | % activity (Pim-3(h) (human)): 37% | % activity (Ab1(Q252H)(h) (human)): 40% | % activity (ULK3(h) (human)): 177% | % activity (GCK(h) (human)): 30% | % activity (CDK3/cyclinE(h) (human)): 8% | % activity (FAK(h) (human)): 94% | % activity (CHK2(h) (human)): 13% | % activity (PRAK(h) (human)): 95% | % activity (AMPKa1(h) (human)): 35% | % activity (Syk(h) (human)): 5% | % activity (ULK2(h) (human)): 124% | % activity (PKD2(h) (human)): 10% | % activity (SGK3(h) (human)): -3% | % activity (CaMKIδ(h) (human)): 0% | % activity (SGK(h) (human)): 2% | % activity (Itk(h) (human)): 7% | % activity (MAPKAP-K3(h) (human)): 9% | % activity (JAK3(h) (human)): 95% | % activity (Tie2(h) (human)): 22% | % activity (PKBβ(h) (human)): 21% | % activity (p70S6K(h) (human)): 3% | % activity (PASK(h) (human)): 9% | % activity (Ab1(H396P)(h) (human)): 51% | % activity (DCAMKL2(h) (human)): 56% | % activity (Bmx(h) (human)): 45% | % activity (TSSK2(h) (human)): 92% | % activity (TAO2(h) (human)): 15% | % activity (KDR(h) (human)): 15% | % activity (SRPK2(h) (human)): 80% | % activity (NEK3(h) (human)): 20% | % activity (CK2(h) (human)): 93% | % activity (CHK1(h) (human)): 65% | % activity (Flt3(D835Y)(h) (human)): 65% | % activity (Ret(h) (human)): 174% | % activity (CaMKIIδ(h) (human)): 1% | % activity (IRAK4(h) (human)): 3% | % activity (Met(Y1248D)(h) (human)): 218% | % activity (NEK7(h) (human)): 89%

MMI-0200 (peptide)
% activity (DAPK2(h) (human)): 92% | % activity (LIMK1(h) (human)): 109% | % activity (FGFR2(h) (human)): 73% | % activity (EphA3(h) (human)): 117% | % activity (MRCKβ(h) (human)): 102% | % activity (PKCη(h) (human)): 101% | % activity (PDGFRα(V561D)(h) (human)): 106% | % activity (EphB2(h) (human)): 128% | % activity (ZIPK(h) (human)): 67% | % activity (DYRK2(h) (human)): 142% | % activity (PKCδ(h) (human)): 101% | % activity (Pim-2(h) (human)): 74% | % activity (ZAP-70(h) (human)): 58% | % activity (RIPK2(h) (human)): 98% | % activity (GRK7(h) (human)): 124% | % activity (SAPK4(h) (human)): 106% | % activity (ROCK-II(h) (human)): 85% | % activity (EphA1(h) (human)): 136% | % activity (Rse(h) (human)): 88% | % activity (Pim-3(h) (human)): 94% | % activity (Ab1(Q252H)(h) (human)): 107% | % activity (ULK3(h) (human)): 164% | % activity (GCK(h) (human)): 99% | % activity (CDK3/cyclinE(h) (human)): 104% | % activity (FAK(h) (human)): 110% | % activity (CHK2(h) (human)): 105% | % activity (PRAK(h) (human)): 115% | % activity (AMPKa1(h) (human)): 108% | % activity (Syk(h) (human)): 36% | % activity (ULK2(h) (human)): 132% | % activity (PKD2(h) (human)): 78% | % activity (SGK3(h) (human)): 58% | % activity (CaMKIδ(h) (human)): 47% | % activity (SGK(h) (human)): 115% | % activity (Itk(h) (human)): 98% | % activity (MAPKAP-K3(h) (human)): 39% | % activity (JAK3(h) (human)): 117% | % activity (Tie2(h) (human)): 53% | % activity (PKBβ(h) (human)): 250% | % activity (p70S6K(h) (human)): 84% | % activity (PASK(h) (human)): 60% | % activity (Ab1(H396P)(h) (human)): 121% | % activity (DCAMKL2(h) (human)): 131% | % activity (Bmx(h) (human)): 76% | % activity (TSSK2(h) (human)): 91% | % activity (TAO2(h) (human)): 93% | % activity (KDR(h) (human)): 110% | % activity (SRPK2(h) (human)): 100% | % activity (NEK3(h) (human)): 100% | % activity (CK2(h) (human)): 83% | % activity (CHK1(h) (human)): 115% | % activity (Flt3(D835Y)(h) (human)): 115% | % activity (Ret(h) (human)): 96% | % activity (CaMKIIδ(h) (human)): 2% | % activity (IRAK4(h) (human)): 110% | % activity (Met(Y1248D)(h) (human)): 118% | % activity (NEK7(h) (human)): 96%

MMI-0100 (peptide)
% activity (DAPK2(h) (human)): 41% | % activity (LIMK1(h) (human)): 103% | % activity (FGFR2(h) (human)): 49% | % activity (EphA3(h) (human)): 107% | % activity (MRCKβ(h) (human)): 103% | % activity (PKCη(h) (human)): 105% | % activity (PDGFRα(V561D)(h) (human)): 58% | % activity (EphB2(h) (human)): 68% | % activity (ZIPK(h) (human)): 80% | % activity (DYRK2(h) (human)): 99% | % activity (PKCδ(h) (human)): 100% | % activity (Pim-2(h) (human)): 117% | % activity (ZAP-70(h) (human)): 79% | % activity (RIPK2(h) (human)): 92% | % activity (GRK7(h) (human)): 111% | % activity (SAPK4(h) (human)): 98% | % activity (ROCK-II(h) (human)): 102% | % activity (EphA1(h) (human)): 114% | % activity (Rse(h) (human)): 109% | % activity (Pim-3(h) (human)): 98% | % activity (Ab1(Q252H)(h) (human)): 105% | % activity (ULK3(h) (human)): 142% | % activity (GCK(h) (human)): 98% | % activity (CDK3/cyclinE(h) (human)): 106% | % activity (FAK(h) (human)): 98% | % activity (CHK2(h) (human)): 104% | % activity (PRAK(h) (human)): 159% | % activity (AMPKa1(h) (human)): 107% | % activity (Syk(h) (human)): 45% | % activity (ULK2(h) (human)): 123% | % activity (PKD2(h) (human)): 84% | % activity (SGK3(h) (human)): 95% | % activity (CaMKIδ(h) (human)): 59% | % activity (SGK(h) (human)): 128% | % activity (Itk(h) (human)): 99% | % activity (MAPKAP-K3(h) (human)): 27% | % activity (JAK3(h) (human)): 150% | % activity (Tie2(h) (human)): 28% | % activity (PKBβ(h) (human)): 284% | % activity (p70S6K(h) (human)): 89% | % activity (PASK(h) (human)): 81% | % activity (Ab1(H396P)(h) (human)): 130% | % activity (DCAMKL2(h) (human)): 146% | % activity (Bmx(h) (human)): 62% | % activity (TSSK2(h) (human)): 107% | % activity (TAO2(h) (human)): 95% | % activity (KDR(h) (human)): 100% | % activity (SRPK2(h) (human)): 92% | % activity (NEK3(h) (human)): 100% | % activity (CK2(h) (human)): 90% | % activity (CHK1(h) (human)): 97% | % activity (Flt3(D835Y)(h) (human)): 120% | % activity (Ret(h) (human)): 108% | % activity (CaMKIIδ(h) (human)): 89% | % activity (IRAK4(h) (human)): 100% | % activity (Met(Y1248D)(h) (human)): 87% | % activity (NEK7(h) (human)): 97%
